# Data as given in patent publication US20060270596A1 (CENTRE NATIONAL DE LA RECHERCHE SCIENTIFIQUE CNRS, published 2006).
# T1: human chemokine SLC/CCL21, mature form (amino acids 24-134) (human, UniProt O00585 24-134)
# T1 construct: GenBank NP-002980; Used as Gal4 fusion in two-hybrid and as 35S-labelled in vitro translation product in pull-downs; also called SLC/6Ckine; SLC/CCL21 wild type
# T1 sequence: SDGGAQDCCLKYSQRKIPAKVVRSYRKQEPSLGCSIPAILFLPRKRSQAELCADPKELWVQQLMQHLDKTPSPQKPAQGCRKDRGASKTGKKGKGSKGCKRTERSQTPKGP
# T2: human THAP1 (THanatos-Associated-Protein-1), full length (human, UniProt Q9NVV9 1-213)
# T2 construct: these tags are not written into the chain; also called hTHAP1; THAP1 wild type
# T2 sequence: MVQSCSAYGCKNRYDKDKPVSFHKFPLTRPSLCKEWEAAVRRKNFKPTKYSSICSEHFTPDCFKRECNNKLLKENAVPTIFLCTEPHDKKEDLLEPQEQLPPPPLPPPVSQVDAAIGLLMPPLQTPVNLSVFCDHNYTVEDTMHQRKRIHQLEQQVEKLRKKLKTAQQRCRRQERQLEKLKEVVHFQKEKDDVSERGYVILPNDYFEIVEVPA
# T3: GST-THAP1 fusion protein (THAP1 amino acids 1-213) (human, UniProt Q5RCE4 1-213 (Pongo abelii entry))
# T3 construct: Expressed in E. coli, immobilized on glutathione sepharose; also called immobilized GST-THAP1; not shown: glutathione S-transferase encoded by vector pGEX-2T (Amersham Pharmacia Biotech)
# T3 sequence: T2 sequence
# T4: GST-THAP3 181-284 (chemokine-binding domain of THAP3) (human, UniProt Q8WTV1 136-239)
# T4 construct: not shown: GST (glutathione S-transferase of pGEX2T) and its linker at the N end
# T4 sequence: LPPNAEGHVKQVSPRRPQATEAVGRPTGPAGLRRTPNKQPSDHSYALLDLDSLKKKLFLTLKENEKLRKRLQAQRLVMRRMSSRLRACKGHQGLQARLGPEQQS
# T5: chemokine CXCL8 (UniProt P10145 1-99, limits assumed)
# T5 construct: 35S-labelled in vitro translation product
# T5 sequence (looked up): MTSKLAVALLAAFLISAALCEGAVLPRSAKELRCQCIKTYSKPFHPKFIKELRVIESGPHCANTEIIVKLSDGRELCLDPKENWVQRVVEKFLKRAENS
# B1: THAP1-C2 deletion mutant (amino acids 120-213) (other)
# chain: MPPLQTPVNLSVFCDHNYTVEDTMHQRKRIHQLEQQVEKLRKKLKTAQQRCRRQERQLEKLKEVVHFQKEKDDVSERGYVILPNDYFEIVEVPA
# notes: Gal4 fusion, in vitro translation product or GFP fusion according to assay
# B2: human chemokine MIG/CXCL9, mature form (amino acids 23-125) (ligand)
# chain: TPVVRKGRCSCISTNQGTIHLQSLKDLKQFAPSPSCEKIEIIATLKNGVQTCLNPDSADVKELIKKWEKQVSQKKKQKNGKKHQKKKVLKVRKSQRSRQKKTT
# notes: Residues are printed against GenBank NM-002416; Gal4 fusion or in vitro translation product
# B3: THAP1ΔQRCRR mutant (deletion of residues 168-172) (other)
# chain: MVQSCSAYGCKNRYDKDKPVSFHKFPLTRPSLCKEWEAAVRRKNFKPTKYSSICSEHFTPDCFKRECNNKLLKENAVPTIFLCTEPHDKKEDLLEPQEQLPPPPLPPPVSQVDAAIGLLMPPLQTPVNLSVFCDHNYTVEDTMHQRKRIHQLEQQVEKLRKKLKTAQQERQLEKLKEVVHFQKEKDDVSERGYVILPNDYFEIVEVPA
# B4: human chemokine ELC/CCL19, mature form (amino acids 22-98) (ligand)
# chain: GTNDAEDCCLSVTQKPIPGYIVRNFHYLLIKDGCRVPAVVFTTLRGRQLCAPPDQPWVERIIQRLQRTSAKMKRRSS
# notes: Residues are printed against GenBank NM-006274; Gal4-BD fusion or in vitro translation product
# B5: THAP1-C1 deletion mutant (amino acids 90-213) (other)
# chain: KEDLLEPQEQLPPPPLPPPVSQVDAAIGLLMPPLQTPVNLSVFCDHNYTVEDTMHQRKRIHQLEQQVEKLRKKLKTAQQRCRRQERQLEKLKEVVHFQKEKDDVSERGYVILPNDYFEIVEVPA
# notes: Gal4 fusion, in vitro translation product or GFP fusion according to assay; also called THAP1-CL; THAP1ΔTHAP
# B6: THAP1-N3 deletion mutant (amino acids 1-192) (other)
# chain: MVQSCSAYGCKNRYDKDKPVSFHKFPLTRPSLCKEWEAAVRRKNFKPTKYSSICSEHFTPDCFKRECNNKLLKENAVPTIFLCTEPHDKKEDLLEPQEQLPPPPLPPPVSQVDAAIGLLMPPLQTPVNLSVFCDHNYTVEDTMHQRKRIHQLEQQVEKLRKKLKTAQQRCRRQERQLEKLKEVVHFQKEKDD
# notes: as for B1
# B7: THAP1-N1 deletion mutant (amino acids 1-90) (other)
# chain: MVQSCSAYGCKNRYDKDKPVSFHKFPLTRPSLCKEWEAAVRRKNFKPTKYSSICSEHFTPDCFKRECNNKLLKENAVPTIFLCTEPHDKK
# notes: Gal4 fusion, in vitro translation product or GFP fusion according to assay; also called zinc finger domain of THAP1
# B8: GST-THAP2 133-228 (chemokine-binding domain of THAP2) (other)
# chain: EAKKRIIKLEKEIASLRRKMKTCLQKERRATRRWIKATCLVKNLEANSVLPKGTSEHMLPTALSSLPLEDFKILEQDQQDKTLLSLNLKQTKSTFI
# notes: Immobilized on glutathione sepharose; not shown: glutathione S-transferase encoded by vector pGEX2T (Amersham Biosciences)
# B9: THAP1-C3 deletion mutant (amino acids 143-213) (other)
# chain: MHQRKRIHQLEQQVEKLRKKLKTAQQRCRRQERQLEKLKEVVHFQKEKDDVSERGYVILPNDYFEIVEVPA
# notes: as for B1
# B10: human cytokine interferon gamma (amino acids 21-166) (ligand)
# chain: CYCQDPYVKEAENLKKYFNAGHSDVADNGTLFLGILKNWKEESDRKIMQSQIVSFYFKLFKNFKDDQSIQKSVETIKEDMNVKFFNSNKKKRDDFEKLTNYSVTDLNVQRKAIHELIQVMAELSPAAKTGKRKRSQMLFQGRRASQ
# notes: Residues are given against GenBank NM-000619; Negative control; also called IFNγ; IFN
# Experiments:
# [1] = target: T1, human chemokine SLC/CCL21, mature form …; test: yeast two-hybrid
# [2] = target: T2, human THAP1 …; test: yeast two-hybrid
# [3] = target: T6, GST (glutathione S-transferase) control protein (UniProt P08515 1-218 = GST); test: GST pull-down, negative control: in vitro translated 35S-labelled chemokine or cytokine on GST alone immobilised on glutathione sepharose, SDS-PAGE, fluorography
# T6 construct: Negative control in GST pull-down assays; also called GST beads; GST alone
# T6 sequence (P08515 whole entry): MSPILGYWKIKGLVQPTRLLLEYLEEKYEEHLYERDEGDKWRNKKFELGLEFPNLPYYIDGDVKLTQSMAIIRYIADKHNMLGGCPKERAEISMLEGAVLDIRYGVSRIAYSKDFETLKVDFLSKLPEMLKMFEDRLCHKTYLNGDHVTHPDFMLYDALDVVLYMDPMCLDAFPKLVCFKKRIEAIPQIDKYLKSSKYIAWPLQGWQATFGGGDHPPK
# [4] = target: T2, human THAP1 …; test: yeast two-hybrid, THAP1 bait
# [5] = target: T2, human THAP1 …; test: yeast two-hybrid, chemokine bait and THAP1 prey
# [6] = target: T3, GST-THAP1 fusion protein (THAP1 amino …); test: GST pull-down: in vitro translated 35S-labelled protein on GST-THAP1 immobilised on glutathione sepharose, SDS-PAGE, fluorography
# Procedure: To confirm the results obtained in yeast, THAP1 mutants were also tested in in vitro GST pull down assays. Wild type THAP1 expressed as a GST-tagged fusion protein and immobilized on glutathione sepharose (as described in example 16), was incubated with radiolabeled in vitro translated THAP1 mutants. In vitro-translated THAP1 mutants were generated with the TNT-coupled reticulocyte lysate system (Promega, Madison, Wis., USA) using pGADT7-THAP1-C1, -C2, -C3, -N1, -N2 or -N3 vector as template. 25 μl of each ³⁵S-labelled THAP1 mutant was incubated with immobilized GST or GST-THAP1 wild-type protein overnight at 4° C., in the following binding buffer: 10 mM NaPO4 pH 8.0, 140 mM NaCl, 3 mM MgCl2, 1 mM dithiothreitol (DTT), 0.05% NP40, and 0.2 mM phenylmethyl sulphonyl fluoride (PMSF), 1 mM Na Vanadate, 50 mM β Glycerophosphate, 25 μg/ml chimotrypsine, 5 μg/ml aprotinin, 10 μg/ml Leupeptin. Beads were then washed 5 times in 1 ml binding buffer. Bound proteins were eluted with 2× Laemmli SDS-PAGE sample buffer, fractionated by 10% SDS-PAGE and visualized by fluorography using Amplify (Amersham Pharmacia Biotech). As expected, THAP1-C1, -C2, -C3, -and -N3 interacted with GST/THAP1 (FIG. 16B).
# [7] = target: T4, GST-THAP3 181-284 (chemokine-binding …); test: GST pull-down, 35S-labelled in vitro translated molecule
# chemokine CXCL8 = target: T5, chemokine CXCL8; test: GST pull-down: in vitro translated 35S-labelled protein on the GST fusion immobilised on glutathione sepharose, SDS-PAGE, fluorography
# [8] = target: T3, GST-THAP1 fusion protein (THAP1 amino …); test: GST pull-down: in vitro translated 35S-labelled chemokine or cytokine on the GST fusion immobilised on glutathione sepharose, SDS-PAGE, fluorography
binder,measurement,setting,value
B1,binding result,[1],binds
same,binding result,[2],binds
B2,binding result,[3],no binding
B3,binding result,[4],no binding
B4,binding result,[3],no binding
same,binding result,[5],binds
B5,binding result,[2],binds
B6,binding result,[2],binds
B7,binding result,[1],no binding
same,binding result,[2],no binding
same,binding result,[6],no binding
same,binding result,[7],no binding
B8,binding result,chemokine CXCL8,no binding
B9,binding result,[1],binds
same,binding result,[2],binds
B10,binding result,[2],no binding
same,binding result,[3],no binding
same,binding result,[8],no binding
same,binding result,[7],no binding
